# Experimental data as given in patent US20160152676A1 (COLORADO STATE UNIVERSITY RESEARCH FOUNDATION, published 2016).
# B1: His6x-GLUE-Cpep (designed binder)
# chain: MGSSHHHHHHSQDPGLNDIFEAQKIEWHEGGSGGSGGTEYWHYVETTSSGQPLLREGEKDIAIDQSVGLYHGKSKILQRQRGRIFLTSQRIIYIDDAKPTQNSLGLELDDLAYVNYSSGFLTRSPALILFFKDPSSSTEFVQLSFRKSDGVWFSWATEIALYTILIHSLIEESQNQQEKNEQELL
# notes: Purified construct used in CD; also called helix-grafted GLUE
# B2: FLAG-GLUE (other)
# chain: MDYKDDDDKGGSEYWHYVETTSSGQPLLREGEKDIFIDQSVGLYHGKSKILQRQRGRIFLTSQRIIYIDDAKPTQNSLGLELDDLAYVNYSSGFLTRSPALILFFKDPSSSTEFVQLSFRKSDGVLFSQATERALENILT
# notes: Co-expressed with 5-Helix-His6x in E. coli; lysate ELISA; also called wtGLUE; wt-GLUE
# B3: FLAG-GLUE-Cpep (pET-28a construct, His6x-FLAG-GLUE-Cpep) (designed binder)
# chain: MGSSHHHHHHSSGLVPRGSHMDYKDDDDKGGSEYWHYVETTSSGQPLLREGEKDIAIDQSVGLYHGKSKILQRQRGRIFLTSQRIIYIDDAKPTQNSLGLELDDLAYVNYSSGFLTRSPALILFFKDPSSSTEFVQLSFRKSDGVWFSWATEIALYTILIHSLIEESQNQQEKNEQELL
# notes: Purified, pre-incubated with human serum, then tested in ELISA on biotinylated 5-helix
# B4: FLAG-GLUE-Cpep (designed binder)
# chain: MDYKDDDDKGGSEYWHYVETTSSGQPLLREGEKDIAIDQSVGLYHGKSKILQRQRGRIFLTSQRIIYIDDAKPTQNSLGLELDDLAYVNYSSGFLTRSPALILFFKDPSSSTEFVQLSFRKSDGVWFSWATEIALYTILIHSLIEESQNQQEKNEQELL
# notes: Co-expressed with 5-Helix-His6x in E. coli; lysate ELISA; also called grafted GLUE; helix-grafted GLUE
# B5: FLAG-CHR (peptide)
# peptide: MDYKDDDDKGGSWMEWDREINNYTSLIHSLIEESQNQQEKNEQELL
# notes: Co-expressed with 5-Helix-His6x in E. coli; also called C-peptide; native C-peptide
# B6: GLUE-Cpep (untagged) (designed binder)
# chain: MEYWHYVETTSSGQPLLREGEKDIAIDQSVGLYHGKSKILQRQRGRIFLTSQRIIYIDDAKPTQNSLGLELDDLAYVNYSSGFLTRSPALILFFKDPSSSTEFVQLSFRKSDGVWFSWATEIALYTILIHSLIEESQNQQEKNEQELL
# notes: Co-expressed with 5-Helix-His6x in E. coli; also called untagged GLUE-Cpep
# What was measured:
# 5-Helix-His6x [1] = target: T1, 5-Helix-His6x (HIV-1); test: circular dichroism of a 1:1 mixture, wavelength scan and thermal melt
# T1 construct: also called His6-tagged 5-helix; 5-Helix bundle
# 5-Helix-His6x [2] = target: T1, 5-Helix-His6x; test: ELISA on E. coli lysate, His6-tagged 5-helix captured on Ni-NTA plates, anti-FLAG detection
# [3] = target: T2, AviTag-5-helix-His6x, biotinylated (HIV-1, biotin conjugated to the AviTag with BirA); test: ELISA, biotinylated 5-helix on streptavidin plates, 50 nM GLUE-Cpep pre-incubated in human serum, anti-FLAG detection
# T2 construct: also called Biotinylated 5-helix; AviTagged 5-helix; not shown: N-terminal AviTag and any linker
# 5-Helix-His6x [4] = target: T1, 5-Helix-His6x; test: Ni-NTA co-purification from E. coli lysate, densitometry of the protein bands
Binder,binding result (5-Helix-His6x [2]),also measured
B1,–,binding result (5-Helix-His6x [1]): binds
B2,no binding,–
B3,–,binding result [3]: binds
B4,binds,–
B5,binds,–
B6,–,ratio of proteins in the complex (stoichiometry) (5-Helix-His6x [4]): 1 ratio (1:1)
